Laboratory results taken from the supplement of paper PMC9112550, “Optimization of the antimicrobial peptide Bac7 by deep mutational scanning” (BMC Biology, 2022).

System: Escherichia coli TOP10
Test: shrunken log2 fold change of peptide-encoding DNA abundance (4.5 h post-induction vs induction); higher = less antimicrobial activity (less host growth inhibition)
Settings: time post-induction: 4.5 h; library: site-saturation at positions 5, 18, 19, 20
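Also: peptides expressed intracellularly from a pBAD plasmid library in pooled LB shake-flask culture, induced with 0.3% L-arabinose, DNA abundance read by NGS, three biological replicates, DESeq2 with apeglm shrinkage.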

Sequence: RRIRRRPPRLPRPRPRPVWKPRP
- shrunken log2 fold change: 0.147

Sequence: RRIRTRPPRLPRPRPRPTTQPRP
- shrunken log2 fold change: -0.338

Sequence: RRIRIRPPRLPRPRPRPCELPRP
- shrunken log2 fold change: -0.254

Sequence: RRIRCRPPRLPRPRPRPPWVPRP
- shrunken log2 fold change: 0.204

Sequence: RRIRYRPPRLPRPRPRPDVSPRP
- shrunken log2 fold change: -0.248

Sequence: RRIRGRPPRLPRPRPRPSCSPRP
- shrunken log2 fold change: 0.295

Sequence: RRIRNRPPRLPRPRPRPLNWPRP
- shrunken log2 fold change: -0.269

Sequence: RRIRQRPPRLPRPRPRPAPMPRP
- shrunken log2 fold change: 0.538

Sequence: RRIRHRPPRLPRPRPRPHAMPRP
- shrunken log2 fold change: -0.00419

Sequence: RRIRHRPPRLPRPRPRPQWAPRP
- shrunken log2 fold change: -0.018

Sequence: RRIRARPPRLPRPRPRPMIRPRP
- shrunken log2 fold change: -0.388

Sequence: RRIRKRPPRLPRPRPRPDQVPRP
- shrunken log2 fold change: 0.0449

Sequence: RRIRERPPRLPRPRPRPNDKPRP
- shrunken log2 fold change: -0.507

Sequence: RRIRGRPPRLPRPRPRPWRPPRP
- shrunken log2 fold change: 0.376

Sequence: RRIRPRPPRLPRPRPRPDAMPRP
- shrunken log2 fold change: 0.319

Sequence: RRIRFRPPRLPRPRPRPNDFPRP
- shrunken log2 fold change: -0.228

Sequence: RRIRIRPPRLPRPRPRPQMVPRP
- shrunken log2 fold change: -0.186

Sequence: RRIRQRPPRLPRPRPRPWQWPRP
- shrunken log2 fold change: -0.133

Sequence: RRIRYRPPRLPRPRPRPCMCPRP
- shrunken log2 fold change: -0.516

Sequence: RRIRTRPPRLPRPRPRPQQIPRP
- shrunken log2 fold change: -0.0971

Sequence: RRIRHRPPRLPRPRPRPRNNPRP
- shrunken log2 fold change: -0.493

Sequence: RRIRFRPPRLPRPRPRPFDHPRP
- shrunken log2 fold change: -0.281

Sequence: RRIRVRPPRLPRPRPRPLECPRP
- shrunken log2 fold change: -0.041

Sequence: RRIRVRPPRLPRPRPRPLKEPRP
- shrunken log2 fold change: 0.0279

Sequence: RRIRCRPPRLPRPRPRPHIAPRP
- shrunken log2 fold change: -0.413

Sequence: RRIRPRPPRLPRPRPRPVNPPRP
- shrunken log2 fold change: 0.0675

Sequence: RRIRMRPPRLPRPRPRPSGSPRP
- shrunken log2 fold change: 0.133

Sequence: RRIRMRPPRLPRPRPRPQSSPRP
- shrunken log2 fold change: -0.0185

Sequence: RRIRCRPPRLPRPRPRPTYHPRP
- shrunken log2 fold change: -0.815

Sequence: RRIRYRPPRLPRPRPRPGTSPRP
- shrunken log2 fold change: -0.0454

Sequence: RRIRARPPRLPRPRPRPNYAPRP
- shrunken log2 fold change: -0.0399

Sequence: RRIRYRPPRLPRPRPRPLMVPRP
- shrunken log2 fold change: -0.439

Sequence: RRIRKRPPRLPRPRPRPNYWPRP
- shrunken log2 fold change: 0.157

Sequence: RRIRLRPPRLPRPRPRPLNPPRP
- shrunken log2 fold change: -0.0831

Sequence: RRIRIRPPRLPRPRPRPCRKPRP
- shrunken log2 fold change: -0.0747

Sequence: RRIRFRPPRLPRPRPRPIPGPRP
- shrunken log2 fold change: -0.00876

Sequence: RRIRFRPPRLPRPRPRPSFEPRP
- shrunken log2 fold change: -0.532

Sequence: RRIRSRPPRLPRPRPRPNNKPRP
- shrunken log2 fold change: -0.559

Sequence: RRIRSRPPRLPRPRPRPKDFPRP
- shrunken log2 fold change: 0.0212

Sequence: RRIRPRPPRLPRPRPRPHKGPRP
- shrunken log2 fold change: 0.0224

Sequence: RRIRWRPPRLPRPRPRPFNWPRP
- shrunken log2 fold change: -0.0369

Sequence: RRIRGRPPRLPRPRPRPEYPPRP
- shrunken log2 fold change: 0.77

Sequence: RRIRSRPPRLPRPRPRPWMKPRP
- shrunken log2 fold change: -0.00765

Sequence: RRIRQRPPRLPRPRPRPNKYPRP
- shrunken log2 fold change: -0.686

Sequence: RRIRARPPRLPRPRPRPLCVPRP
- shrunken log2 fold change: 0.183

Sequence: RRIRWRPPRLPRPRPRPQSVPRP
- shrunken log2 fold change: 0.119

Sequence: RRIRTRPPRLPRPRPRPNRNPRP
- shrunken log2 fold change: -0.544

Sequence: RRIRVRPPRLPRPRPRPCYNPRP
- shrunken log2 fold change: -0.11

Sequence: RRIRPRPPRLPRPRPRPDKGPRP
- shrunken log2 fold change: 0.118

Sequence: RRIRNRPPRLPRPRPRPFPNPRP
- shrunken log2 fold change: -0.33

Sequence: RRIRNRPPRLPRPRPRPNDCPRP
- shrunken log2 fold change: 0.0423

Sequence: RRIRSRPPRLPRPRPRPFKPPRP
- shrunken log2 fold change: -0.297

Sequence: RRIRDRPPRLPRPRPRPPDDPRP
- shrunken log2 fold change: 0.535

Sequence: RRIRSRPPRLPRPRPRPDGYPRP
- shrunken log2 fold change: -0.164

Sequence: RRIRYRPPRLPRPRPRPKPRPRP
- shrunken log2 fold change: 0.515

Sequence: RRIRQRPPRLPRPRPRPYDLPRP
- shrunken log2 fold change: -0.0546

Sequence: RRIRDRPPRLPRPRPRPNHLPRP
- shrunken log2 fold change: 0.000895

Sequence: RRIRFRPPRLPRPRPRPAGTPRP
- shrunken log2 fold change: -0.0142

Sequence: RRIRKRPPRLPRPRPRPISKPRP
- shrunken log2 fold change: -0.357

Sequence: RRIRYRPPRLPRPRPRPWICPRP
- shrunken log2 fold change: -0.593

Sequence: RRIRSRPPRLPRPRPRPTHIPRP
- shrunken log2 fold change: -0.165

Sequence: RRIRRRPPRLPRPRPRPKIVPRP
- shrunken log2 fold change: 0.0944

Sequence: RRIRYRPPRLPRPRPRPRLMPRP
- shrunken log2 fold change: -0.0571

Sequence: RRIRGRPPRLPRPRPRPHMRPRP
- shrunken log2 fold change: 0.997

Sequence: RRIRMRPPRLPRPRPRPFLMPRP
- shrunken log2 fold change: -0.0208

Sequence: RRIRHRPPRLPRPRPRPFNHPRP
- shrunken log2 fold change: -0.372

Sequence: RRIRDRPPRLPRPRPRPTQGPRP
- shrunken log2 fold change: 0.797

Sequence: RRIRCRPPRLPRPRPRPHMNPRP
- shrunken log2 fold change: -0.843

Sequence: RRIRLRPPRLPRPRPRPTLSPRP
- shrunken log2 fold change: -0.0659

Sequence: RRIRCRPPRLPRPRPRPHQKPRP
- shrunken log2 fold change: 0.00571

Sequence: RRIRTRPPRLPRPRPRPKNEPRP
- shrunken log2 fold change: 0.715

Sequence: RRIRPRPPRLPRPRPRPAPKPRP
- shrunken log2 fold change: 0.702

Sequence: RRIRERPPRLPRPRPRPQQAPRP
- shrunken log2 fold change: 0.01

Sequence: RRIRPRPPRLPRPRPRPYRCPRP
- shrunken log2 fold change: -0.173

Sequence: RRIRDRPPRLPRPRPRPPIKPRP
- shrunken log2 fold change: -0.204

Sequence: RRIRYRPPRLPRPRPRPVYIPRP
- shrunken log2 fold change: -1.27

Sequence: RRIRKRPPRLPRPRPRPQEYPRP
- shrunken log2 fold change: -0.0576

Sequence: RRIRSRPPRLPRPRPRPSWCPRP
- shrunken log2 fold change: -0.132

Sequence: RRIRQRPPRLPRPRPRPLSWPRP
- shrunken log2 fold change: 0.485

Sequence: RRIRARPPRLPRPRPRPAIHPRP
- shrunken log2 fold change: -0.223

Sequence: RRIRRRPPRLPRPRPRPYMWPRP
- shrunken log2 fold change: -0.374

Sequence: RRIRLRPPRLPRPRPRPLADPRP
- shrunken log2 fold change: -0.0654

Sequence: RRIRYRPPRLPRPRPRPWYHPRP
- shrunken log2 fold change: -0.0547

Sequence: RRIRFRPPRLPRPRPRPQYIPRP
- shrunken log2 fold change: -0.0295

Sequence: RRIRKRPPRLPRPRPRPNKFPRP
- shrunken log2 fold change: -0.0338

Sequence: RRIRVRPPRLPRPRPRPLTHPRP
- shrunken log2 fold change: -0.439

Sequence: RRIRPRPPRLPRPRPRPMNDPRP
- shrunken log2 fold change: -0.329

Sequence: RRIRDRPPRLPRPRPRPSRKPRP
- shrunken log2 fold change: -0.0764

Sequence: RRIRTRPPRLPRPRPRPQCKPRP
- shrunken log2 fold change: -0.26

Sequence: RRIRCRPPRLPRPRPRPESCPRP
- shrunken log2 fold change: -0.0297

Sequence: RRIRSRPPRLPRPRPRPVDFPRP
- shrunken log2 fold change: -0.0272

Sequence: RRIRDRPPRLPRPRPRPYGYPRP
- shrunken log2 fold change: -0.575

Sequence: RRIRRRPPRLPRPRPRPKFEPRP
- shrunken log2 fold change: 0.0131

Sequence: RRIRPRPPRLPRPRPRPWIAPRP
- shrunken log2 fold change: 0.0544

Sequence: RRIRGRPPRLPRPRPRPGTKPRP
- shrunken log2 fold change: 0.652

Sequence: RRIRLRPPRLPRPRPRPDYIPRP
- shrunken log2 fold change: -0.161

Sequence: RRIRDRPPRLPRPRPRPKVLPRP
- shrunken log2 fold change: -0.041

Sequence: RRIRCRPPRLPRPRPRPSIMPRP
- shrunken log2 fold change: -0.684

Sequence: RRIRMRPPRLPRPRPRPKREPRP
- shrunken log2 fold change: 0.055

Sequence: RRIRTRPPRLPRPRPRPHRIPRP
- shrunken log2 fold change: -0.052

Sequence: RRIRGRPPRLPRPRPRPMQTPRP
- shrunken log2 fold change: 0.0492

Sequence: RRIRDRPPRLPRPRPRPLHDPRP
- shrunken log2 fold change: -0.0658

Sequence: RRIRCRPPRLPRPRPRPWSKPRP
- shrunken log2 fold change: -0.498

Sequence: RRIRFRPPRLPRPRPRPIGVPRP
- shrunken log2 fold change: -0.0194

Sequence: RRIRMRPPRLPRPRPRPTFDPRP
- shrunken log2 fold change: 0.558

Sequence: RRIRNRPPRLPRPRPRPCSLPRP
- shrunken log2 fold change: -0.262

Sequence: RRIRYRPPRLPRPRPRPNYEPRP
- shrunken log2 fold change: -0.399

Sequence: RRIRLRPPRLPRPRPRPVRTPRP
- shrunken log2 fold change: 0.175

Sequence: RRIRSRPPRLPRPRPRPPGLPRP
- shrunken log2 fold change: 0.348

Sequence: RRIRARPPRLPRPRPRPYCEPRP
- shrunken log2 fold change: 0.0687

Sequence: RRIRQRPPRLPRPRPRPRHKPRP
- shrunken log2 fold change: 0.0456

Sequence: RRIRFRPPRLPRPRPRPRFKPRP
- shrunken log2 fold change: -0.281

Sequence: RRIRHRPPRLPRPRPRPIYCPRP
- shrunken log2 fold change: -0.0143

Sequence: RRIRCRPPRLPRPRPRPNCIPRP
- shrunken log2 fold change: -0.723

Sequence: RRIRLRPPRLPRPRPRPENDPRP
- shrunken log2 fold change: -0.336

Sequence: RRIRRRPPRLPRPRPRPLWHPRP
- shrunken log2 fold change: 1.15

Sequence: RRIRIRPPRLPRPRPRPILGPRP
- shrunken log2 fold change: -0.0266

Sequence: RRIRVRPPRLPRPRPRPCQHPRP
- shrunken log2 fold change: -0.09

Sequence: RRIRPRPPRLPRPRPRPMVIPRP
- shrunken log2 fold change: -0.0869

Sequence: RRIRCRPPRLPRPRPRPGAAPRP
- shrunken log2 fold change: 0.956

Sequence: RRIRTRPPRLPRPRPRPIVKPRP
- shrunken log2 fold change: -0.144

Sequence: RRIRARPPRLPRPRPRPKHGPRP
- shrunken log2 fold change: 0.246

Sequence: RRIRWRPPRLPRPRPRPIDGPRP
- shrunken log2 fold change: 0.19

Sequence: RRIRCRPPRLPRPRPRPLTSPRP
- shrunken log2 fold change: 0.208

Sequence: RRIRLRPPRLPRPRPRPIAWPRP
- shrunken log2 fold change: 0.0351
